In US20240360228A1 (BIOLEGEND, published 2024):
Positions count from the first letter of the chain named.

B1: anti-CCR8 monoclonal antibody AB7 (antibody, V domains shown)
VH: AVQLVESGGGLVQPKESLKISCAASGFTFSYAAMYWVRQTPGKGLEWVARIRTKPNNYATYYADSVKGRFTISRDDSKSMVYLQMDNLKSEDTAMYYCNIMGITRGYYFDYWGQGVMVTVSS
VL: DIQMTQSPSFLSASVGDRVTINCKASQNINRYLNWYQQQLGEAPKLLIYNANNLQTGIPSRFSGSRSGTDFTLTISSLQPEDVATYFCLQHNSWPWTFGGGTKLELK
notes: Hybridoma monoclonal; also called antibody 7; clone 7
B2: anti-CCR8 monoclonal antibody AB8 (antibody, V domains shown)
VH: B1 VH with T28I, Y31N, T40A, E46Q, N56K, A63I, S90T, I100T, I103L, G106A
VL: B1 VL with Q39K, N53S, R66G, S76R
notes: Hybridoma monoclonal; also called antibody 8; clone 8
B3: anti-CCR8 monoclonal antibody AB10 (antibody, V domains shown)
VH: EVQLVETGGGLVQPKGSLKLSCAVSGFTFKTNAMNWVRQAPGKGLEWVARIRSKSNKYATYYADSVKDRFTISRDDSQSMLYLQMNNLKTEDTAMYYCVRGSEMGYYYAMDYWGQGTSVTVSS
VL: DIVMTQAAPSVPVTPGESVSISCRSSKSLLHSNGNTYLYWFLQRPGQSPQLLIYRMSNLASGVPDRFSGSGSGTAFTLRISRVEAEDVGVYYCMQHLEYPFTFGGGTKLEIK
notes: Hybridoma monoclonal; also called antibody 10; clone 10
B4: anti-CCR8 monoclonal antibody AB6 (antibody, V domains shown)
VH: QVQLKESGPGLVQPSQTLSLTCTVSGFSLTSYHVSWVRQPPGKGLEWMGVIWTGGSTTYNSLLKSRLSISRDISKSQVFLKMNSLQTEDTATYYCARGGTVVKGGFAYWGQGTLVTVSS
VL: DIQMTQSPASLSASLEEIVTITCQASQDIGNRLSWYQQKPGKSPQLLIYGATSLADGVPSRFSGSRSGTQYSLKISRLQVEDIGIYYCLQAYSTPLTFGSGTKLEIK
notes: also called antibody 6; clone 6

Molecular target: T1, human chemokine (C-C motif) receptor 8 (CCR8) (human, UniProt P51685 1-355)
T1 construct: also called hCCR8
T1 sequence (P51685 whole entry): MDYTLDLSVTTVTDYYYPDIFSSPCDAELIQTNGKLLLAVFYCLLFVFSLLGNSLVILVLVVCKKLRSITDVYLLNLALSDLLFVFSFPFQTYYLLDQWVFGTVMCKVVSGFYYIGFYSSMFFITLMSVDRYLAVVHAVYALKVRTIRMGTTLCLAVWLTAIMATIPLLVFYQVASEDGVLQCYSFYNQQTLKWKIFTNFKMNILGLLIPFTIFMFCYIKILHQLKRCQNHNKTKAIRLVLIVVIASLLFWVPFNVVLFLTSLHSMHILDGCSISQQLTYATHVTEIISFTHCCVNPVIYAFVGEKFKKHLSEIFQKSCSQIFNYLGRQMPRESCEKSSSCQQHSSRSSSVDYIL
Experiment: flow cytometry blocking, human PBMC, CD3+ gate; competitor PE-AB5
Description: (§1) For blocking studies, 100 μL of the cell suspension were incubated with 10 μg purified isotype control, AB1, AB2, AB3, AB4, AB5, AB8, AB9, AB10, AB11, AB12, AB13, AB14, AB15, and Commercial ABI antibodies, or isotype control, as blocking agents.
(§2) After incubation with the blocking agent, the cells were incubated with 0.25 μg of the indicated PE-conjugated antibody plus anti-human CD4 APC or anti-human CD3 for another 15 minutes in the dark and then washed 2 times with Cell Staining Buffer, and acquired in a FACSCanto II flow cytometer (BD Biosciences); the data was analyzed using FCS Express (De Novo Software); MFI correspond to the CCR8+ CD4+ lymphocytes or CCR8+ CD3+ lymphocytes.
(§3) Percentage original MFI was calculated by dividing the MFI of samples blocked with AB1, AB2, AB3, AB4, AB5, AB6, AB7, AB8, AB9, AB10, AB11, AB12, AB13, AB14, AB15, and Commercial ABI antibodies, by the MFI of samples blocked with the corresponding isotype control. This value was subtracted from 100 to get a blocking percentage. The formula is shown below: […]

Row | Binder | % Blocking [%]
1 | B1 | -4.7
2 | B2 | -7.96
3 | B3 | -5.55
4 | B4 | 7.24

Molecular target: T1, human chemokine (C-C motif) receptor 8 …
Experiment: flow cytometry blocking, human PBMC, CD3+ gate; competitor PE-AB6
Description: as §1, §2, §3

Row | Binder | % Blocking [%]
5 | B1 | -0.24
6 | B2 | 1.33
7 | B3 | 6.04
8 | B4 | 12.4

Molecular target: T1, human chemokine (C-C motif) receptor 8 …
Experiment: flow cytometry blocking, human PBMC, CD3+ gate; competitor PE-AB7
Description: as §1, §2, §3

Row | Binder | % Blocking [%]
9 | B1 | 83.8
10 | B2 | 6.48
11 | B3 | 50.1
12 | B4 | 83

Molecular target: T1, human chemokine (C-C motif) receptor 8 …
Experiment: flow cytometry blocking, human PBMC, CD3+ gate; competitor PE-AB8
Description: as §1, §2, §3

Row | Binder | % Blocking [%]
13 | B1 | 92.9
14 | B2 | 18
15 | B3 | 48.6
16 | B4 | 85.2

Molecular target: T1, human chemokine (C-C motif) receptor 8 …
Experiment: flow cytometry blocking, human PBMC, CD3+ gate; competitor PE-433H

Row | Binder | % Blocking [%]
17 | B1 | 87.5
18 | B2 | 88.1
19 | B3 | 19.9
20 | B4 | 9.05

Molecular target: T1, human chemokine (C-C motif) receptor 8 …
Experiment: flow cytometry blocking, human PBMC, CD3+ gate; competitor PE-AB10
Description: as §1, §2, §3

Row | Binder | % Blocking [%]
21 | B1 | 91.2
22 | B2 | 89.2
23 | B3 | 97.5
24 | B4 | 6.97

Molecular target: T1, human chemokine (C-C motif) receptor 8 …
Experiment: flow cytometry blocking, human PBMC, CD3+ gate; competitor PE-AB11
Description: as §1, §2, §3

Row | Binder | % Blocking [%]
25 | B1 | 98
26 | B2 | 90.2
27 | B3 | 96
28 | B4 | -9.26

Molecular target: T1, human chemokine (C-C motif) receptor 8 …
Experiment: flow cytometry blocking, human PBMC, CD3+ gate; competitor PE-AB12
Description: as §1, §2, §3

Row | Binder | % Blocking [%]
29 | B1 | 99.3
30 | B2 | 99.3
31 | B3 | 93.9
32 | B4 | 5.71

Molecular target: T1, human chemokine (C-C motif) receptor 8 …
Experiment: flow cytometry blocking, human PBMC, CD3+ gate; competitor PE-AB13
Description: as §1, §2, §3

Row | Binder | % Blocking [%]
33 | B1 | 85.6
34 | B2 | 96.1
35 | B3 | 88.1
36 | B4 | 2.41

Molecular target: T1, human chemokine (C-C motif) receptor 8 …
Experiment: flow cytometry blocking, human PBMC, CD3+ gate; competitor PE-AB14
Description: as §1, §2, §3

Row | Binder | % Blocking [%]
37 | B1 | 96.3
38 | B2 | 98.5
39 | B3 | 96.2
40 | B4 | 10.2

Molecular target: T1, human chemokine (C-C motif) receptor 8 …
Experiment: flow cytometry blocking, human PBMC, CD3+ gate; competitor PE-AB15
Description: as §1, §2, §3

Row | Binder | % Blocking [%]
41 | B1 | 87.1
42 | B2 | 98.9
43 | B3 | 95.6
44 | B4 | 10

Molecular target: T1, human chemokine (C-C motif) receptor 8 …
Experiment: flow cytometry blocking, human PBMC, CD3+ gate; competitor PE-L263G8

Row | Binder | % Blocking [%]
45 | B1 | 79.7
46 | B2 | 92.5
47 | B3 | 90.3
48 | B4 | -12.1

Molecular target: T1, human chemokine (C-C motif) receptor 8 …
Experiment: flow cytometry blocking, human PBMC, CD3+ gate; % cells stained by competitor PE-AB5 after block
Description: as §1, §2

Row | Binder | % Positive cells [%]
49 | B1 | 8.68
50 | B2 | 8.95
51 | B3 | 8.75
52 | B4 | 7.69

Molecular target: T1, human chemokine (C-C motif) receptor 8 …
Experiment: flow cytometry blocking, human PBMC, CD3+ gate; % cells stained by competitor PE-AB6 after block
Description: as §1, §2

Row | Binder | % Positive cells [%]
53 | B1 | 8.3
54 | B2 | 8.17
55 | B3 | 7.78
56 | B4 | 7.25

Molecular target: T1, human chemokine (C-C motif) receptor 8 …
Experiment: flow cytometry blocking, human PBMC, CD3+ gate; % cells stained by competitor PE-AB7 after block
Description: as §1, §2

Row | Binder | % Positive cells [%]
57 | B1 | 1.47
58 | B2 | 8.51
59 | B3 | 4.54
60 | B4 | 1.55

Molecular target: T1, human chemokine (C-C motif) receptor 8 …
Experiment: flow cytometry blocking, human PBMC, CD3+ gate; % cells stained by competitor PE-AB8 after block
Description: as §1, §2

Row | Binder | % Positive cells [%]
61 | B1 | 0.6
62 | B2 | 6.94
63 | B3 | 4.35
64 | B4 | 1.25

Molecular target: T1, human chemokine (C-C motif) receptor 8 …
Experiment: flow cytometry blocking, human PBMC, CD3+ gate; % cells stained by competitor PE-433H after block
Description: as §1, §2

Row | Binder | % Positive cells [%]
65 | B1 | 0.88
66 | B2 | 0.84
67 | B3 | 5.66
68 | B4 | 6.43

Molecular target: T1, human chemokine (C-C motif) receptor 8 …
Experiment: flow cytometry blocking, human PBMC, CD3+ gate; % cells stained by competitor PE-AB10 after block
Description: as §1, §2

Row | Binder | % Positive cells [%]
69 | B1 | 0.53
70 | B2 | 0.65
71 | B3 | 0.15
72 | B4 | 5.61

Molecular target: T1, human chemokine (C-C motif) receptor 8 …
Experiment: flow cytometry blocking, human PBMC, CD3+ gate; % cells stained by competitor PE-AB11 after block
Description: as §1, §2

Row | Binder | % Positive cells [%]
73 | B1 | 0.14
74 | B2 | 0.69
75 | B3 | 0.28
76 | B4 | 7.67

Molecular target: T1, human chemokine (C-C motif) receptor 8 …
Experiment: flow cytometry blocking, human PBMC, CD3+ gate; % cells stained by competitor PE-AB12 after block
Description: as §1, §2

Row | Binder | % Positive cells [%]
77 | B1 | 0.05
78 | B2 | 0.05
79 | B3 | 0.46
80 | B4 | 7.1

Molecular target: T1, human chemokine (C-C motif) receptor 8 …
Experiment: flow cytometry blocking, human PBMC, CD3+ gate; % cells stained by competitor PE-AB13 after block
Description: as §1, §2

Row | Binder | % Positive cells [%]
81 | B1 | 0.96
82 | B2 | 0.26
83 | B3 | 0.79
84 | B4 | 6.49

Molecular target: T1, human chemokine (C-C motif) receptor 8 …
Experiment: flow cytometry blocking, human PBMC, CD3+ gate; % cells stained by competitor PE-AB14 after block
Description: as §1, §2

Row | Binder | % Positive cells [%]
85 | B1 | 0.26
86 | B2 | 0.11
87 | B3 | 0.27
88 | B4 | 6.4

Molecular target: T1, human chemokine (C-C motif) receptor 8 …
Experiment: flow cytometry blocking, human PBMC, CD3+ gate; % cells stained by competitor PE-AB15 after block
Description: as §1, §2

Row | Binder | % Positive cells [%]
89 | B1 | 0.85
90 | B2 | 0.07
91 | B3 | 0.29
92 | B4 | 5.92

Molecular target: T1, human chemokine (C-C motif) receptor 8 …
Experiment: flow cytometry blocking, human PBMC, CD3+ gate; % cells stained by competitor PE-L263G8 after block
Description: as §1, §2

Row | Binder | % Positive cells [%]
93 | B1 | 1.19
94 | B2 | 0.44
95 | B3 | 0.57
96 | B4 | 6.58
